Laboratory results from the supplement of paper PMC10126150.
± gives the standard deviation of the averaged measurements.

test system: ATP; test: switch fluorescence ratio, 500 uM ATP over buffer (Cy3 cluster intensity, sum of 5 cycles each) (fold (ratio)); higher = stronger signal-on switching upon ATP binding; sequences stand for … in TCGTCGGCAGCGTCAGATGTGTATAAGAGACAGTTTTTTTTTTTTTTTTTTTTTTTTT…TC; details: aptamer strand: ATP DNA aptamer (quencher-CACCTGGGGGAGTATTGCGGAGGAAGG + anchor), 100 nM annealed; ATP concentration: 500 uM
Method in brief: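 For every switch-domain sequence, the fluorescence ratio is the mean of per-cluster values, each being summed target-cycle Cy3 intensity over summed buffer-cycle Cy3 intensity. Clusters outside 100-1000 RFU were excluded. On a modified Illumina MiSeq flow-cell, the Cy3-labelled switching-strand clusters were annealed to 100 nM quencher-labelled ATP aptamer, imaged in selection buffer and then after 15 min with 500 uM ATP at 22 °C. Five such cycles were run, with NaOH stripping and re-annealing between them.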
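Further: ATP exposure 15 min at 22 °C before imaging.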

Sequence	switch fluorescence ratio
ATCGATTGTT	1.01 ± 0.031
ATCGCATATG	1.08 ± 0.053
ATCGCGACTA	1.05 ± 0.036
ATCGCGAGGA	1.026 ± 0.0025
ATCGCGTGTG	1.009 ± 0.0062
ATCGCTTAGG	1 ± 0.012
ATCGGAATAA	1.4 ± 0.025
ATCGGACGCG	0.987 ± 0.016
ATCGGATGGC	1.06 ± 0.02
ATCGGGAGAT	0.9833 ± 0.0076
ATCGGGAGCC	0.959 ± 0.03
ATCGGGCTGT	1.03 ± 0.013
ATCGGGGAGA	0.997 ± 0.017
ATCGGGGGA	1.02 ± 0.051
ATCGGGGGTC	0.946 ± 0.032
ATCGGGGGTT	0.987 ± 0.023
ATCGGGGTCC	1.02 ± 0.019
ATCGGGTAA	0.9965 ± 0.0029
ATCGGGTCGG	1.01 ± 0.03
ATCGGTGGGG	0.963 ± 0.019
ATCGTATGGA	0.998 ± 0.013
ATCGTGATGG	1.03 ± 0.04
ATCGTGGGAA	0.9793 ± 0.0059
ATCGTGGGGG	1 ± 0.028
ATCGTGTTGA	0.971 ± 0.02

Sequence	switch fluorescence ratio
ATCGTTATCA	0.991 ± 0.056
ATCGTTCGTG	0.99714 ± 0.00096
ATCGTTCTGT	0.966 ± 0.025
ATCGTTGAGG	0.986 ± 0.023
ATCGTTGCGG	1.1 ± 0.099
ATCGTTGTA	1.04 ± 0.069
ATCGTTGTAC	1.18 ± 0.048
ATCGTTTAAT	0.9671 ± 0.003
ATCTACATTA	1.04 ± 0.015
ATCTACGTTG	1.05 ± 0.012
ATCTAGGTCA	1.02 ± 0.037
ATCTAGTTTG	1.01 ± 0.045
ATCTATCGTG	0.991 ± 0.021
ATCTATGGTG	1.02 ± 0.02
ATCTCTGGGT	1 ± 0.033
ATCTCTGGTC	0.976 ± 0.027
ATCTGAGAGG	1.003 ± 0.0031
ATCTGGAATA	1.24 ± 0.039
ATCTGGCTCG	0.988 ± 0.016
ATCTGTTTTT	0.972 ± 0.0075
ATCTTAATG	1.01 ± 0.05
ATCTTAGTGC	1 ± 0.026
ATCTTCAATT	1.005 ± 0.0055
ATCTTGAGAC	1.02 ± 0.042
ATCTTGGGTT	1.006 ± 0.0064

Sequence	switch fluorescence ratio
ATCTTGTGGC	0.972 ± 0.032
ATCTTGTGTC	0.945 ± 0.02
ATCTTGTTGG	1.13 ± 0.27
ATCTTTATGT	1.03 ± 0.017
ATCTTTCGCG	1.02 ± 0.015
ATCTTTTAGG	1.07 ± 0.11
ATGAAATCTG	1.06 ± 0.074
ATGAAGAGAG	0.9897 ± 0.0069
ATGAAGCTAG	1.06 ± 0.013
ATGAAGGGAA	0.999 ± 0.017
ATGAAGGGTG	1.04 ± 0.036
ATGAAGTTGT	1.019 ± 0.01
ATGAATCTTG	1.02 ± 0.032
ATGAATGTTT	1 ± 0.026
ATGAATTTGG	0.973 ± 0.025
ATGACCGGTT	1.01 ± 0.046
ATGACCTCGG	1.02 ± 0.07
ATGACGAAGC	1.57 ± 0.13
ATGACGCCTG	1 ± 0.022
ATGACTTGCG	1 ± 0.023
ATGACTTGGG	0.96 ± 0.011
ATGACTTTGG	0.977 ± 0.028
ATGAGAAGGC	0.997 ± 0.038
ATGAGACCCT	1.07 ± 0.036
ATGAGAGCTT	0.982 ± 0.011

Sequence	switch fluorescence ratio
ATGAGATAGG	0.982 ± 0.045
ATGAGATTGC	0.9899 ± 0.0076
ATGAGGCACG	1.05 ± 0.068
ATGAGGGCAG	0.993 ± 0.018
ATGAGGGGCA	0.98 ± 0.026
ATGAGGTTTG	1.01 ± 0.019
ATGAGGTTTT	0.991 ± 0.012
ATGAGTCTTT	0.9801 ± 0.0079
ATGAGTGCTC	0.98 ± 0.0086
ATGAGTGGAG	1.034 ± 0.004
ATGAGTTACT	1.005 ± 0.0051
ATGAGTTGGT	0.982 ± 0.033
ATGAGTTTTG	0.984 ± 0.029
ATGATACAGG	1.08 ± 0.039
ATGATATGTT	0.992 ± 0.034
ATGATGCAGA	1.004 ± 0.008
ATGATGCTTG	0.993 ± 0.045
ATGATGGGGA	0.987 ± 0.021
ATGATGGGTG	1.01 ± 0.02
ATGATGGTCC	0.9778 ± 0.0014
ATGATGGTTA	0.9978 ± 0.0052
ATGATTGACC	1.083 ± 0.0026
ATGATTTTTC	0.976 ± 0.039
ATGCAACCAT	1.01 ± 0.013
ATGCACGTGG	1.008 ± 0.003

Sequence	switch fluorescence ratio
ATGCACTGGG	1.08 ± 0.05
ATGCATAGAT	1.01 ± 0.032
ATGCATGAAA	1 ± 0.017
ATGCATGGGC	1.03 ± 0.022
ATGCATGTGC	0.983 ± 0.01
ATGCATTAAT	0.997 ± 0.015
ATGCATTGCG	0.99777 ± 0.00081
ATGCATTGGA	1.01 ± 0.029
ATGCCGGAG	0.986 ± 0.028
ATGCGAAGGT	1.04 ± 0.037
ATGCGAATAT	0.989 ± 0.015
ATGCGAGTGG	1.01 ± 0.047
ATGCGATGGC	1.02 ± 0.0072
ATGCGCCGGT	1.011 ± 0.0027
ATGCGGCATT	1.03 ± 0.044
ATGCGGGCCC	0.99 ± 0.012
ATGCGGGGGC	1.045 ± 0.0046
ATGCGGGGGT	0.993 ± 0.037
ATGCGGGTGC	1.04 ± 0.039
ATGCGGGTTT	1.02 ± 0.018
ATGCGTCGCG	0.986 ± 0.025
ATGCGTGGAA	1.02 ± 0.027
ATGCTAACGT	0.9818 ± 0.0032
ATGCTATGCG	1.008 ± 0.01
ATGCTATGGT	0.987 ± 0.013

Sequence	switch fluorescence ratio
ATGCTGGGCG	1.02 ± 0.041
ATGCTGTTGG	1 ± 0.026
ATGCTTCTTT	0.9854 ± 0.0053
ATGGAAAGGG	0.989 ± 0.041
ATGGAACCGT	1.02 ± 0.027
ATGGAACCTT	1.28 ± 0.34
ATGGAAGGGA	1.15 ± 0.21
ATGGAAGTGC	0.9827 ± 0.0068
ATGGAAGTGG	0.9908 ± 0.007
ATGGAATGCG	1.028 ± 0.0089
ATGGACACGC	1.03 ± 0.042
ATGGACTATG	1.02 ± 0.043
ATGGAGAAAG	1.02 ± 0.059
ATGGAGGCG	1.03 ± 0.013
ATGGAGGGTA	0.99 ± 0.016
ATGGAGTGTG	0.989 ± 0.02
ATGGAGTTG	0.994 ± 0.024
ATGGATACGG	1.02 ± 0.011
ATGGATAGCG	0.968 ± 0.074
ATGGATCTCA	1 ± 0.0063
ATGGATGACA	0.951 ± 0.052
ATGGATTCTG	1.07 ± 0.091
ATGGATTTGT	1.01 ± 0.021
ATGGCAACCG	1.02 ± 0.012
ATGGCAAGGT	1.02 ± 0.065

Sequence	switch fluorescence ratio
ATGGCAGACT	1.02 ± 0.052
ATGGCAGCTG	0.9949 ± 0.0095
ATGGCCGGGT	1.01 ± 0.013
ATGGCCGGTT	1.04 ± 0.013
ATGGCGACGA	1.027 ± 0.0095
ATGGCGAGGG	0.989 ± 0.017
ATGGCGATCA	0.999 ± 0.0078
ATGGCTTGGT	0.99 ± 0.025
ATGGGAAGGC	0.983 ± 0.026
ATGGGACAGT	0.988 ± 0.05
ATGGGACGGC	0.998 ± 0.032
ATGGGAGGGC	0.9698 ± 0.0059
ATGGGAGGTG	1.01 ± 0.039
ATGGGATGCG	0.981 ± 0.016
ATGGGCAGCT	1.02 ± 0.011
ATGGGCCGGG	0.9955 ± 0.0074
ATGGGCTAGA	0.9731 ± 0.0052
ATGGGCTGGG	0.997 ± 0.035
ATGGGCTTAC	1.2301 ± 0.00072
ATGGGGAATA	1.03 ± 0.0059
ATGGGGCATA	1.01 ± 0.045
ATGGGGGAA	0.997 ± 0.042
ATGGGGGCAC	0.971 ± 0.032
ATGGGGGGCA	0.971 ± 0.025
ATGGGGGGT	0.992 ± 0.028

Sequence	switch fluorescence ratio
ATGGGGGGTT	1.01 ± 0.043
ATGGGGGTAG	1.01 ± 0.048
ATGGGGTGGC	0.9977 ± 0.0017
ATGGGGTGGG	0.985 ± 0.026
ATGGGGTGTG	1 ± 0.018
ATGGGTACGG	1.02 ± 0.029
ATGGGTGAGT	1.002 ± 0.0086
ATGGGTGCCT	1.03 ± 0.023
ATGGGTGTGC	1 ± 0.034
ATGGGTTAGC	0.998 ± 0.011
ATGGGTTCAG	0.969 ± 0.0045
ATGGGTTTAG	0.994 ± 0.016
ATGGTAAGT	0.9815 ± 0.0057
ATGGTAGTAA	1.01 ± 0.024
ATGGTAGTGG	0.995 ± 0.026
ATGGTATATT	1 ± 0.033
ATGGTCAGGT	1.01 ± 0.019
ATGGTCGGGA	0.986 ± 0.026
ATGGTCGTCG	0.9939 ± 0.0035
ATGGTCGTCT	0.971 ± 0.027
ATGGTCTGCC	0.974 ± 0.02
ATGGTCTGCG	1 ± 0.018
ATGGTGAAGG	1.01 ± 0.066
ATGGTGGTGG	1.011 ± 0.0062
ATGGTGTAGG	1.01 ± 0.012
